This note sets out measurements from publication PMC6706441, “B1 oligomerization regulates PML nuclear body biogenesis and leukemogenesis” (Nature Communications, 2019).

“And” between values parts separate entries of the source, which are not always exact repeats. Equal entries are not always repeated.

Series [1] concerns the molecule itself. In words: crystal structure; vapor diffusion, protein 38 mg/ml; 30% PEG 6000, 1 M lithium chloride, 100 mM sodium acetate; Zn SAD; oligomers from the asymmetric unit and crystal packing.
Series [2] concerns the molecule itself. In words: cross-linking; 5 μg purified B1 with 0.05, 0.1, 0.2% (w/v) glutaraldehyde, on ice 30 min, 20 mM Hepes pH 7.4; 8–16% SDS-PAGE, coomassie.
Series [3] concerns the molecule itself. Kind of series: AUC; sedimentation velocity of the gel filtration peaks; Beckman XL-1, 130,000 g, 20 °C, >12 h; 20 mM Tris, pH 8.0, 100 mM NaCl; SEDFIT continuous c(s) model. (In general: In gel filtration, larger molecules generally elute earlier.)
Series [4] concerns the molecule itself. In words: SEC; gel filtration on a calibrated Superdex 200 column; 20 mM Tris, pH 8.0, 100 mM NaCl.
Series [5] concerns the molecule itself. Kind of series: cross-linking; 0.3 μg purified HA-PML(1–256) with increasing glutaraldehyde, on ice 30 min, 20 mM Hepes pH 7.4; 4–12% SDS-PAGE, anti-HA immunoblot.

B1: PML B1-box, residues 120-168, wild type (domain or fragment, UniProt P29590 120-168, looked up)
chain: RQIVDAQAVCTRCKESADFWCFECEQLLCAKCFEAHQWFLKHEARPLAE
notes: PML (TRIM19) B1-box, residues 120-168; residues 120-167 are seen in the crystallographic monomer; Four molecules in the asymmetric unit; also called WT B1; source: E. coli BL21 (DE3), purified (His-Trap, thrombin, Q, Phenyl, S100); not shown: His tag, N-terminal, cleaved
Turning to B1, the binding result in series [1] is “binds”.

B2: PML B1-box I122P/V123P (domain or fragment, UniProt P29590 120-168, looked up)
chain: RQPPDAQAVCTRCKESADFWCFECEQLLCAKCFEAHQWFLKHEARPLAE
notes: PML (TRIM19) B1-box, residues 120-168, double mutant I122P/V123P; PDB 6IMQ holds the wild-type parent; source: E. coli BL21 (DE3), purified (His-Trap, thrombin, Q, Phenyl, S100); not shown: His tag, N-terminal, cleaved
For the protein B2, in series [2], the binding result is on record as “binds”.

B3: PML_(1–256) I122P/V123P (domain or fragment, UniProt P29590-1 1-256, looked up)
chain: MEPAPARSPRPQQDPARPQEPTMPPPETPSEGRQPSPSPSPTERAPASEEEFQFLRCQQCQAEAKCPKLLPCLHTLCSGCLEASGMQCPICQAPWPLGADTPALDNVFFESLQRRLSVYRQPPDAQAVCTRCKESADFWCFECEQLLCAKCFEAHQWFLKHEARPLAELRNQSVREFLDGTRKTNNIFCSNPNHRTPTLTSIYCRGCSKPLCCSCALLDSSHSELKCDISAEIQQRQEELDAMTQALQEQDSAFGA
notes: PML (TRIM19), residues 1-256, double mutant I122P/V123P; source: E. coli BL21 (DE3), purified (His-Trap, thrombin, Q, Phenyl, Superdex 200); not shown: SUMO (human), N-terminal, cleaved; His tag, N-terminal, cleaved
Consider B3, for which, in series [3], the binding result was “binds”.

B4: PML_(1–256) W157E (domain or fragment, UniProt P29590-1 1-256, looked up)
chain: MEPAPARSPRPQQDPARPQEPTMPPPETPSEGRQPSPSPSPTERAPASEEEFQFLRCQQCQAEAKCPKLLPCLHTLCSGCLEASGMQCPICQAPWPLGADTPALDNVFFESLQRRLSVYRQIVDAQAVCTRCKESADFWCFECEQLLCAKCFEAHQEFLKHEARPLAELRNQSVREFLDGTRKTNNIFCSNPNHRTPTLTSIYCRGCSKPLCCSCALLDSSHSELKCDISAEIQQRQEELDAMTQALQEQDSAFGA
notes: PML (TRIM19), residues 1-256, mutant W157E; source: E. coli BL21 (DE3), purified (His-Trap, thrombin, Q, Phenyl, Superdex 200); not shown: SUMO (human), N-terminal, cleaved; His tag, N-terminal, cleaved
For the protein B4, the binding result in series [4] is given as “binds”.

B5: PML RBCC fragment, residues 1-256 (RING, B1, B2 and a 20-residue coiled-coil), wild type (domain or fragment, UniProt P29590-1 1-256, looked up)
chain: MEPAPARSPRPQQDPARPQEPTMPPPETPSEGRQPSPSPSPTERAPASEEEFQFLRCQQCQAEAKCPKLLPCLHTLCSGCLEASGMQCPICQAPWPLGADTPALDNVFFESLQRRLSVYRQIVDAQAVCTRCKESADFWCFECEQLLCAKCFEAHQWFLKHEARPLAELRNQSVREFLDGTRKTNNIFCSNPNHRTPTLTSIYCRGCSKPLCCSCALLDSSHSELKCDISAEIQQRQEELDAMTQALQEQDSAFGA
notes: PML (TRIM19), residues 1-256: RING, B1-box, B2-box and a 20-residue coiled-coil; His tag lay between SUMO and PML; SUMO-His removed after thrombin digestion; Mixture of monomer, dimer, tetramer and N-mer in solution; also called PML_(1–256); RBCC_(1–256); source: E. coli BL21 (DE3), purified (His-Trap, thrombin, Q, Phenyl, Superdex 200); not shown: SUMO (human), N-terminal, cleaved; His tag, …
As for B5, the stoichiometry N (as a rule, the number of molecules, sites or subunits per partner or assembly) in series [3] is 2 and 4.

B6: PML_(1–256) F158E (domain or fragment, UniProt P29590-1 1-256, looked up)
chain: MEPAPARSPRPQQDPARPQEPTMPPPETPSEGRQPSPSPSPTERAPASEEEFQFLRCQQCQAEAKCPKLLPCLHTLCSGCLEASGMQCPICQAPWPLGADTPALDNVFFESLQRRLSVYRQIVDAQAVCTRCKESADFWCFECEQLLCAKCFEAHQWELKHEARPLAELRNQSVREFLDGTRKTNNIFCSNPNHRTPTLTSIYCRGCSKPLCCSCALLDSSHSELKCDISAEIQQRQEELDAMTQALQEQDSAFGA
notes: PML (TRIM19), residues 1-256, mutant F158E; source: E. coli BL21 (DE3), purified (His-Trap, thrombin, Q, Phenyl, Superdex 200); not shown: SUMO (human), N-terminal, cleaved; His tag, N-terminal, cleaved
Regarding B6, the binding result in series [4] was “binds”.

B7: HA-PML_(1–256) I122P/V123P (domain or fragment, UniProt P29590-1 1-256, looked up)
chain: MEPAPARSPRPQQDPARPQEPTMPPPETPSEGRQPSPSPSPTERAPASEEEFQFLRCQQCQAEAKCPKLLPCLHTLCSGCLEASGMQCPICQAPWPLGADTPALDNVFFESLQRRLSVYRQPPDAQAVCTRCKESADFWCFECEQLLCAKCFEAHQWFLKHEARPLAELRNQSVREFLDGTRKTNNIFCSNPNHRTPTLTSIYCRGCSKPLCCSCALLDSSHSELKCDISAEIQQRQEELDAMTQALQEQDSAFGA
notes: PML (TRIM19), residues 1-256, double mutant I122P/V123P; See note of m9; source: purified
On to B7, for which, in series [5], the binding result is “binds”.
